Reference: patent publication US20130004493A1

Columns and labels:
[1] = biological target: Focal adhesion kinase (FAK), human (human) (UniProt Q05397); assay: immunoprecipitation from ARPE-19 and ARPE-19/EMP2 lysates, Western blot densitometry
[2] = biological target: Focal adhesion kinase (FAK), human (human) (UniProt Q05397); assay: co-immunoprecipitation, ratio of co-immunoprecipitate to cognate immunoprecipitate, ARPE-19 cells
[3] = biological target: Focal adhesion kinase (FAK), human (human) (UniProt Q05397); assay: cell-based or functional assay
[4] = biological target: Focal adhesion kinase (FAK), human (human) (UniProt Q05397); assay: co-immunoprecipitation, ratio of co-immunoprecipitate to cognate immunoprecipitate, ARPE-19/EMP2 cells
[5] = biological target: Focal adhesion kinase (FAK), human (human) (UniProt Q05397); assay: co-immunoprecipitation with anti-EMP2 antibody, Western blot densitometry, ARPE-19 cells
[6] = biological target: Focal adhesion kinase (FAK), human (human) (UniProt Q05397); assay: co-immunoprecipitation, Western blot for FAK, ARPE-19 cells (figure legend)
[7] = biological target: Focal adhesion kinase (FAK), human (human) (UniProt Q05397); assay: co-immunoprecipitation with anti-EMP2 antibody, Western blot densitometry, ARPE-19/EMP2 cells

Focal adhesion kinase (FAK), human (human), sequence (Q05397 2-1052): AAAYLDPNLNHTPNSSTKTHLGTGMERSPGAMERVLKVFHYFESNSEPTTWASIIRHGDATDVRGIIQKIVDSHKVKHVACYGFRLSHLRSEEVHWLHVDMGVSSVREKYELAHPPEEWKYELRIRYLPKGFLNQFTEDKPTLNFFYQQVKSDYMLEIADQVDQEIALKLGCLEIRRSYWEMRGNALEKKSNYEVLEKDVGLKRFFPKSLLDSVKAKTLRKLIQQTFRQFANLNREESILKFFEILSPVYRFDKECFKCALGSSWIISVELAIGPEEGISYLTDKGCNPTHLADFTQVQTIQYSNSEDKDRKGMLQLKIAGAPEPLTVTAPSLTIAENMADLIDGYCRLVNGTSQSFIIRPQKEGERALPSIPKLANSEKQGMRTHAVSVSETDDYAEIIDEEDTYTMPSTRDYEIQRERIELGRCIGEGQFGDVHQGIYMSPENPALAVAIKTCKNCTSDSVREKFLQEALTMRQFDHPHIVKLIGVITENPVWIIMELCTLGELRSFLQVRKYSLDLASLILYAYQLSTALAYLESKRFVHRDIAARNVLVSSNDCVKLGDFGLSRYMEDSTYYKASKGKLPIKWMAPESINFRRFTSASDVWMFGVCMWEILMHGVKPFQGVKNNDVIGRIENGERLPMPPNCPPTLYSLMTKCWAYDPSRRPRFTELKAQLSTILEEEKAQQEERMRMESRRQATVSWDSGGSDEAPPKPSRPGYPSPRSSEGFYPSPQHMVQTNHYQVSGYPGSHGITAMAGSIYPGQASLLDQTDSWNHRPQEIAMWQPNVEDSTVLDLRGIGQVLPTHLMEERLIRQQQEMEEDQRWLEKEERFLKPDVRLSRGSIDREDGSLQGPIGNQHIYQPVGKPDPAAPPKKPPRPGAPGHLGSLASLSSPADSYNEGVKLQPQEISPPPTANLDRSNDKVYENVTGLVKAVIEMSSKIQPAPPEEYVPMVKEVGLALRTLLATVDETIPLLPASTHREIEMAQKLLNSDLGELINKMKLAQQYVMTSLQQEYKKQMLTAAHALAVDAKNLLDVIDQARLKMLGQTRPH

cognate immunoprecipitation efficiency [1] [%] | percent of total FAK associated with EMP2 [2] [%] | percent of FAK at the cell surface contacting the glass slide colocalized with EMP2 (confocal microscopy, ARPE-19/EMP2 cells) [3] [%] | percent of FAK at the cell surface contacting the glass slide colocalized with EMP2 (confocal microscopy, ARPE-19 cells) [3] [%] | percent of total FAK associated with EMP2 [4] [%] | level of FAK in the EMP2 immunoprecipitates [5] [%] | percent of total FAK co-immunoprecipitated by EMP2 [6] [%] | level of FAK in the EMP2 immunoprecipitates [7] [%] | Substance
50 to 60 |  |  |  |  |  |  |  | Anti-FAK polyclonal antibody (Santa Cruz Biotechnology, clone C-20)
 | 24 | 96 | 68 | 30 | 12 | 25 | 15 | Epithelial membrane protein 2 (EMP2), human (from UniProt P54851 1-167)
